Positions count from the first letter of the chain named.

To fix the notation:
T1: M58(R164D) (Synechococcus elongatus PCC 7942, UniProt Q03513 1-539, R164D)
T1 construct: CcmM (M58), Synechococcus elongatus PCC 7942, point mutant in the γCAL domain (head-to-head salt bridge); also called SeM58-R164D; M58oxR164D; source: E. coli BL21 (DE3), purified as wild-type M58; not shown: His6-ubiquitin, N-terminal, cleaved
T1 sequence (looked up): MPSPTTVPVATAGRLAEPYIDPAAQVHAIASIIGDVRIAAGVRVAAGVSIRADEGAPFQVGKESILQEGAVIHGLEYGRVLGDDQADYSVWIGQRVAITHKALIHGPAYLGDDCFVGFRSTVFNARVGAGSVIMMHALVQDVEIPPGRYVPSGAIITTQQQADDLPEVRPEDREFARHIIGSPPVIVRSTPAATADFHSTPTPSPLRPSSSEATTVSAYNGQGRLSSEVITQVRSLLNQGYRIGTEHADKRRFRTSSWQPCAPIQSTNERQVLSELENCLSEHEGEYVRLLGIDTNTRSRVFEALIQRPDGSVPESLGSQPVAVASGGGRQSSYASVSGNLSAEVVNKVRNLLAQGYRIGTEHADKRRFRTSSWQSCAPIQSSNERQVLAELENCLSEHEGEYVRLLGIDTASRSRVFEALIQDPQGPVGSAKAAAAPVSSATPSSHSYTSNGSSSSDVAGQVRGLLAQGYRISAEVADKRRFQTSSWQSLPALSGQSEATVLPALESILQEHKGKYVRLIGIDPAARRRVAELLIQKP

T2: M58(D172K) (Synechococcus elongatus PCC 7942, UniProt Q03513 1-539, D172K)
T2 construct: CcmM (M58), Synechococcus elongatus PCC 7942, point mutant in the γCAL domain (head-to-head salt bridge); also called SeM58-D172K; M58oxD172K; source: E. coli BL21 (DE3), purified as wild-type M58; not shown: His6-ubiquitin, N-terminal, cleaved
T2 sequence (looked up): T1 sequence (looked up) with D164R, D172K

T3: RbcL8 core complex of Rubisco (Synechococcus elongatus PCC 7942)
T3 chain: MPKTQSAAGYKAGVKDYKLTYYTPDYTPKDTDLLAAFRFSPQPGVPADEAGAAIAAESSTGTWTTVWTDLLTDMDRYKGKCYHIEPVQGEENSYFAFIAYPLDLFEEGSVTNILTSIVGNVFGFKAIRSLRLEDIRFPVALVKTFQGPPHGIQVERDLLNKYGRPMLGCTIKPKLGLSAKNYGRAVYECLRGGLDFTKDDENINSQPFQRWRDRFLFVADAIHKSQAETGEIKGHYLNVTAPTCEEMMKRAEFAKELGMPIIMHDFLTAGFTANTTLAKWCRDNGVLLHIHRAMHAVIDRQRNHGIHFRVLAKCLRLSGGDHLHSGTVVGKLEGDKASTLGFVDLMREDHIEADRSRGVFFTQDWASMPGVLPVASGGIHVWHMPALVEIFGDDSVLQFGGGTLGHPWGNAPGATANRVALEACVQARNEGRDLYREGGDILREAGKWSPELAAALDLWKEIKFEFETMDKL

B1: β-class carbonic anhydrase CcaA of Synechococcus elongatus PCC 7942 (enzyme, UniProt P27134 1-272, looked up)
chain: MRKLIEGLRHFRTSYYPSHRDLFEQFAKGQHPRVLFITCSDSRIDPNLITQSGMGELFVIRNAGNLIPPFGAANGGEGASIEYAIAALNIEHVVVCGHSHCGAMKGLLKLNQLQEDMPLVYDWLQHAQATRRLVLDNYSGYETDDLVEILVAENVLTQIENLKTYPIVRSRLFQGKLQIFGWIYEVESGEVLQISRTSSDDTGIDECPVRLPGSQEKAILGRCVVPLTEEVAVAPPEPEPVIAAVAAPPANYSSRGWLAPEQQQRIYRGNAS
notes: CcaA (~30 kDa), Synechococcus elongatus PCC 7942; ccaA gene amplified from genomic DNA; 272 residues (last 17 are 256-272); For microscopy labelled at the N terminus with Alexa405 and mixed 1:10 with unlabelled protein; also called CcaAAF4; source: E. coli BL21 (DE3), purified (Ni-NTA, H6Ub cleaved, SEC); not shown: His6-ubiquitin, N-terminal, cleaved
B2: γCAL-2S (domain or fragment, Synechococcus elongatus PCC 7942, UniProt Q03513 1-429, looked up)
chain: MPSPTTVPVATAGRLAEPYIDPAAQVHAIASIIGDVRIAAGVRVAAGVSIRADEGAPFQVGKESILQEGAVIHGLEYGRVLGDDQADYSVWIGQRVAITHKALIHGPAYLGDDCFVGFRSTVFNARVGAGSVIMMHALVQDVEIPPGRYVPSGAIITTQQQADRLPEVRPEDREFARHIIGSPPVIVRSTPAATADFHSTPTPSPLRPSSSEATTVSAYNGQGRLSSEVITQVRSLLNQGYRIGTEHADKRRFRTSSWQPCAPIQSTNERQVLSELENCLSEHEGEYVRLLGIDTNTRSRVFEALIQRPDGSVPESLGSQPVAVASGGGRQSSYASVSGNLSAEVVNKVRNLLAQGYRIGTEHADKRRFRTSSWQSCAPIQSSNERQVLAELENCLSEHEGEYVRLLGIDTASRSRVFEALIQDPQGPV
notes: C-terminal truncation of CcmM (M58), Synechococcus elongatus PCC 7942, with the γCAL domain and two SSUL modules, residues 1-429; also called SeγCAL-2S(1–429); γCAL-2Sox; source: E. coli BL21 (DE3), purified as M58; not shown: His6-ubiquitin, N-terminal, cleaved
B3: Rubisco holoenzyme (RbcL8S8) of Synechococcus elongatus PCC 7942 (complex)
chain 1: T3 chain
chain 2: MSMKTLPKERRFETFSYLPPLSDRQIAAQIEYMIEQGFHPLIEFNEHSNPEEFYWTMWKLPLFDCKSPQQVLDEVRECRSEYGDCYIRVAGFDNIKQCQTVSFIVHRPGRY
B4: CcmM full-length protein M58 of Synechococcus elongatus PCC 7942 (natural protein, UniProt Q03513 1-539, looked up)
chain: T1 sequence (looked up) with D164R
notes: CcmM (M58, ~58 kDa), Synechococcus elongatus PCC 7942; full-length ccmM gene amplified from genomic DNA; SeCcmM (1-539); Used reduced (M58red, 5 mM DTT) or oxidized (M58ox, 2 mM H2O2; disulfides in SSUL modules); For microscopy labelled at the N terminus with Alexa532 and mixed 1:10 with unlabelled protein; also called SeM58; M58red; source: E. coli BL21 (DE3), purified (Ni-NTA, H6Ub cleaved with …)

Data set [1] concerns the target β-class carbonic anhydrase CcaA of Synechococcus elongatus PCC 7942 (Synechococcus elongatus PCC 7942) (UniProt P27134). Nature of the data set: SEC-MALS; 2 mg/ml protein; 50 mM Tris-HCl pH 8.0/150 mM KCl or 50 mM Tris-HCl pH 8.0/500 mM KCl/5 mM DTT; 25 °C; oligomeric state in solution.
The target in data set [2] is B4. Nature of the data set: turbidity assay; absorbance at 340 nm, 25 °C, 50 mM Tris-HCl pH 8.0, 10 mM Mg(OAc)2; 0.5 μM CcaA or its mutants (0–1.25 μM for the apparent KD) with 0.5 μM M58 or its truncations and mutants, 0.75 μM γCAL198 or 2.25 μM M35; 100 mM KCl (50–400 mM in the salt series); reducing (5 mM DTT) or oxidizing; apparent; a protein alone: association of its oligomers into condensates. The conditions noted are these: both partners purified.

For data set [3], the target named is T1, M58(R164D). The data set is described as above. The conditions noted are these: both partners purified.
Data set [4] deals with T2, M58(D172K). The data set is described as above. The conditions noted are these: both partners purified.
Data set [5] concerns the molecule itself. Nature of the data set: turbidity assay; one protein alone (homodemixing: association of trimers into a homocondensate); 50 mM KCl; M58ox 0.5–3.0 μM, M58red 5 and 6 μM; truncations and point mutants oxidized at 3 μM; M58-C4S and CCTRIM35 at 5 μM; 25 °C.
The target in data set [6] is B4. In words: turbidity assay; 0.25 μM Rubisco (RbcL8S8) with increasing M58red, M58ox, CCTRIM35red or CCTRIM35ox at 50 mM KCl; or with 0.25 μM M58, 0.25 μM CCTRIM35 or 0.75 μM M35 at 50 and 100 mM KCl; reducing or oxidizing; apparent. The conditions noted are these: both partners purified.
In data set [7] the target is CcmM full-length protein M58 of Synechococcus elongatus PCC 7942 (Synechococcus elongatus PCC 7942) (UniProt Q03513). Nature of the data set: SEC-MALS; 2 mg/ml protein; 50 mM Tris-HCl pH 8.0/150 mM KCl or 50 mM Tris-HCl pH 8.0/500 mM KCl/5 mM DTT; 25 °C; oligomeric state in solution.
In data set [8] the target is T3, RbcL8 core complex of Rubisco. In words: turbidity assay; 0.25 μM RbcL8 with M58red or M58ox at varied concentrations; M35red or M35ox with RbcL8 as controls; 50–200 mM KCl. Conditions: both partners purified.

For B1, in data set [1], the stoichiometry N stood at 4. In data set [2], the Kd is approximately 200 nM. Also, the binding result in data set [3] and in data set [4] was “binds” each time.

As for B2, the binding result in data set [5] is on record as “binds”.

On to B3, for which the Kd in data set [6] is approximately 70 nM.

Regarding B4, the stoichiometry N in data set [7] is 3. Further, the “fold lower affinity than for the Rubisco holoenzyme” value in data set [8] was approximately 4 fold.
